Among the targets are FcγRI (human) (UniProt P12314); FcγRIIIa (human) (UniProt P08637); FcγRIIIb (human) (UniProt O75015).
Holding throughout (experiment): SPR, pH 7.4
What all share (conditions): remark: other sources report otherwise
Background: In SPR one partner is held on a chip, and binding of the other changes the refractive index at the surface.

The Kd is the free concentration of one partner at which half of the binding sites on the other are occupied at equilibrium, for simple one-to-one binding. The low end stands for a tighter complex, the high end for a looser complex.

Chain of FcγRI (human) (P12314 16-288): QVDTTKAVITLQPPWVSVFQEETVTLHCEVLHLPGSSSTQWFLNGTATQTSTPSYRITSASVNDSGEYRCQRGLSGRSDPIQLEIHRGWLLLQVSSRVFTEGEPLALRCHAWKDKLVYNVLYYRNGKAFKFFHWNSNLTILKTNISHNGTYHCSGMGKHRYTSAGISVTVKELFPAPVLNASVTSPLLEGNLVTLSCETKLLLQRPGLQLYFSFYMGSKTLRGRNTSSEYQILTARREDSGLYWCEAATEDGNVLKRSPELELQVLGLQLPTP
Chain of FcγRIIIb (human) (O75015 17-200): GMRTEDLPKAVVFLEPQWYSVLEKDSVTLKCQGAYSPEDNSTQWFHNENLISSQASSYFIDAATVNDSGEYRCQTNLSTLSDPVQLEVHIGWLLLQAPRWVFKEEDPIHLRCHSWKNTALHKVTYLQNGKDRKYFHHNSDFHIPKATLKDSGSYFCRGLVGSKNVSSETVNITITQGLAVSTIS
Chain of FcγRIIIa (human) (P08637 17-208): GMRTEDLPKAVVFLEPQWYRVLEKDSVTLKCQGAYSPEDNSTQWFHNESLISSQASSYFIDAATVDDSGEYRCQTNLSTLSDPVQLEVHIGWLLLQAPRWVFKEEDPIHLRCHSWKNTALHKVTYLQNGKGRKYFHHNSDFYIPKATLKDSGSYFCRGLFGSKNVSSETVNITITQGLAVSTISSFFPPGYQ

As for eculizumab (full length), the Kd with FcγRI (human) is 3.78 µM; with FcγRIIIa (human), 6.78 µM; with FcγRIIIb (human) it was 3.49 µM.

The record behind these values is patent publication US20160108115.
